Laboratory results: patent US20110268740A1

How the values were obtained:
[1] = target: M2e consensus peptide (free, soluble) (Influenza A virus (consensus of H1, H2 and H3 subtypes of human Influenza A viruses)); assay: Friguet ELISA, free M2e peptide in solution
[2] = target: M2e-short (Influenza A virus (consensus)); assay: ELISA, apparent affinity, purified scFv-msFcγ2c on immobilised M2e-short

B1: scFv-F052-msFcγ2c (Fc fusion)
chain: DADPAQAAERVMTQSPDALAVSLGERATINCKSSQSLLYSSNNKNYLAWYQKKPGQPPKLLIYWASTRESGVPDRFSGSGSGTEFTLTINSVQAEDVAVYYCQQYFMTPITFGQGTKLEIKGGSSRSSSSGGGGSGGGGQVQLQESGGALVQPGRSLRLSCRTSGLNFGDYPINWVRQAPGKGLEWVGFIKSKSYGVTTEFAASVEGRFTISRDDSRGIAYLQMNSLKTEDTAVYYCTSSSGFLYYFDYWGQGTLVTVSSASTKGPSVTSGQAGRKLEPRVPITQNPCPPLKECPPCAAPDLLGGPSVFIFPPKIKDVLMISLSPMVTCVVVDVSEDDPDVQISWFVNNVEVHTAQTQTHREDYNSTLRVVSALPIQHQDWMSGKEFKCKVNNRALPSPIEKTISKPRGPVRAPQVYVLPPPAEEMTKKEFSLTCMITGFLPAEIAVDWTSNGRTEQNYKNTATVLDSDGSYFMYSKLRVQKSTWERGSLFACSVVHEGLHNHLTTKTISRSLGK
For B1, the Kd [1] was 0.005 µM and the EC50 [2] was 0.0628 nM.

SLLTEVETPIRNEWGC (modifications not checked) [M2e-short] showed an EC50 (scFv-D005-msFcγ2c) of 27.5 µM and an EC50 (scFv-F052-msFcγ2c) of 46.8 µM.

B2: scFv-D005-msFcγ2c (Fc fusion)
chain: DADPAQAAELVMTQSPDSLAVSLGERATINCKSSQSVLYTSNNKNYLGWYQQKPGQPPNLLIYWASTRESGVPDRFSGSGSGTDFTLTINSVQAEDVAVYYCQQYFMTPITFGQGTRLEIKGGSSRSSSSGGGGSGGGGEVQLVESGGALVQPGRSLRLSCRTSGLNFGDYPINWVRQAPGKGLEWVGFIKSKSYGVTTEFAASVEGRFTISRDDSRGIAYLQMNSLKTEDTAVYYCTSSSGFLYYFDYWGQGTLVTVSSASTKGPSVTSGQAGRKLEPRVPITQNPCPPLKECPPCAAPDLLGGPSVFIFPPKIKDVLMISLSPMVTCVVVDVSEDDPDVQISWFVNNVEVHTAQTQTHREDYNSTLRVVSALPIQHQDWMSGKEFKCKVNNRALPSPIEKTISKPRGPVRAPQVYVLPPPAEEMTKKEFSLTCMITGFLPAEIAVDWTSNGRTEQNYKNTATVLDSDGSYFMYSKLRVQKSTWERGSLFACSVVHEGLHNHLTTKTISRSLGK
In the case of B2, the Kd [1] is reported as 0.004 µM and the EC50 [2] is reported as 0.0809 nM.

With SLLTEVETPIRNEWGCRCNDSSD (modifications not checked) [M2e consensus peptide (free, soluble)] the EC50 (scFv-D005-msFcγ2c) was 18.8 µM and the EC50 (scFv-F052-msFcγ2c) was 22 µM.
